Data as given in publication PMC3524375.

Molecular target: NADPH-cytochrome P450 reductase (UniProt P00388)
Chain of UniProt P00388 (P00388 whole entry): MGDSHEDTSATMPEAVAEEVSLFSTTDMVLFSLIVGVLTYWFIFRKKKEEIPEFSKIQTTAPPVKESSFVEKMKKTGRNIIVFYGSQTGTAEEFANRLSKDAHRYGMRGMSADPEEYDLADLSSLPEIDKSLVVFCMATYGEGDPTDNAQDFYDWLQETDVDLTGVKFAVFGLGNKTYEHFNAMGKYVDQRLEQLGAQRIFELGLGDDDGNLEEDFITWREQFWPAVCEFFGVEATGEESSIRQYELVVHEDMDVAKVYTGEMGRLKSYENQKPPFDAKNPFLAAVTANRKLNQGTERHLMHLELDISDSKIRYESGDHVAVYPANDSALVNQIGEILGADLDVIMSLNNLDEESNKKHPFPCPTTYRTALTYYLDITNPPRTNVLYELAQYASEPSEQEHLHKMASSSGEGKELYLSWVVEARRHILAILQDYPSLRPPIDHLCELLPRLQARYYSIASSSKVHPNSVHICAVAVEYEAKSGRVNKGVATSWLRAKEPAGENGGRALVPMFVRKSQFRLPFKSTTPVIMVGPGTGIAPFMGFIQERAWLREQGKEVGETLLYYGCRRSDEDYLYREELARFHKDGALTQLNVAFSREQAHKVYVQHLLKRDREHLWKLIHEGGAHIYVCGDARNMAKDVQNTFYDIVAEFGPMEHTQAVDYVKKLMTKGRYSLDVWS

% of CPR-dependent versus dithionite-dependent reduced P450-CO spectrum [%] | Substance
88 | human cytochrome P450 3A4, wild type, untreated (from UniProt P08684 1-503) (enzyme)
22 | CYP3A4 Y430V mutant (from UniProt P08684 1-503) (enzyme)
41 | CYP3A4 Y430F mutant (from UniProt P08684 1-503) (enzyme)
